Laboratory results published in article PMC3510010.
Like-named read-outs stand apart in the source and are kept apart here.

Legend:
Assay in all cases: F-EMSA
POS-1-RBD (80-180) = POS-1-RBD (80-180) (Caenorhabditis elegans, UniProt G5EF15 80-180)
SPN-4-RBD = molecular target: T1, SPN-4-RBD (Caenorhabditis elegans, UniProt G5EF02 50-135)
T1 sequence: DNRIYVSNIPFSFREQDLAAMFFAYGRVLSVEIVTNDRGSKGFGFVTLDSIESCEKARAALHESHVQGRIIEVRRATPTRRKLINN

GLD-1(135-336) [1] = molecular target: T2, GLD-1(135-336) (Caenorhabditis elegans, UniProt Q17339 135-336)
T2 sequence: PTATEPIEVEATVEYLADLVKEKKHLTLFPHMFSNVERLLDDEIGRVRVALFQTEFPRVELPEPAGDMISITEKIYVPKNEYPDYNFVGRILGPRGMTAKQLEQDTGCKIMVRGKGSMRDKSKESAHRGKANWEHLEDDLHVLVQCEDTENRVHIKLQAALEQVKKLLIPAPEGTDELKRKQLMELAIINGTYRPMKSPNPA

POS-1(1-206) [2] = molecular target: T3, POS-1(1-206) (Caenorhabditis elegans, UniProt G5EF15 1-206)
T3 sequence (G5EF15 1-206): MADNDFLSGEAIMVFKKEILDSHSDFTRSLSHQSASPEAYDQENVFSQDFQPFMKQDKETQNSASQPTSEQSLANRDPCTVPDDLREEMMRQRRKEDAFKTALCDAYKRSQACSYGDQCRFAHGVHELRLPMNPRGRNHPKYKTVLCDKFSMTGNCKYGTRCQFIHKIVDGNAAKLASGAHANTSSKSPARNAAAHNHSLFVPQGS

GLD-1(135-336) [3] = molecular target: T2, GLD-1(135-336); remark: listed apart in the source
POS-1(1-206) [4] = molecular target: T3, POS-1(1-206); remark: listed apart in the source
POS-1(1-206) [5] = molecular target: T3, POS-1(1-206); remark: listed apart in the source
POS-1(1-206) [6] = molecular target: T3, POS-1(1-206); remark: listed apart in the source
GLD-1(135-336) [7] = molecular target: T2, GLD-1(135-336); remark: listed apart in the source

Chain of POS-1-RBD (80-180) (G5EF15 80-180): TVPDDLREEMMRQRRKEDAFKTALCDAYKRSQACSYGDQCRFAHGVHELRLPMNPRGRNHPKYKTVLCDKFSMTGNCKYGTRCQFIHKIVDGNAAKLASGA

## UUUUUCUUAUUCUAGACUAAUAUUGUAAGCU (ssRNA) [glp-1 WT]
POS-1-RBD (80-180)
  Kd: 30 ± 17 nM
SPN-4-RBD
  binding result: no binding
GLD-1(135-336) [1]
  Kd: 70 ± 10 nM
POS-1(1-206) [2]
  Kd: 19 ± 2 nM

## UUUUUCUUAUUCUAGACUAACCCUGUAAGCU (ssRNA) [∆3′ PRE]
GLD-1(135-336) [3]
  Kd: 25 ± 3 nM
POS-1(1-206) [4]
  Kd: 53 ± 1 nM

## UUUUUCUCCCUCUAGACUAAUAUUGUAAGCU (ssRNA) [∆5′ PRE]
GLD-1(135-336) [3]
  Kd: 33 ± 7 nM
POS-1(1-206) [5]
  Kd: 55 ± 4 nM

## UUUUUCUUAUUCUAGACCAAUAUUGUAAGCU (ssRNA) [∆GBM]
POS-1(1-206) [6]
  Kd: 21 ± 1 nM

## UUUUUCUCCCUCUAGACUAACCCUGUAAGCU (ssRNA) [∆5′ 3′ PRE]
POS-1(1-206) [6]
  Kd: 310 ± 20 nM
GLD-1(135-336) [7]
  Kd: 20 ± 3 nM
